Reference: the supplement of paper PMC10567573

B1: FUT8 (parent)
chain: YAHQPRTADEIPMEPGDIIGVAGN
B2: PHTF1 (parent)
chain: SRHLNSQVKKTTTRWCHIVRDSDS

Variants of: B1
Test: protein stability index of a GFP-peptide fusion (GPS, HEK-293T) (PSI 1-6); higher = more stable
Conditions: c terminus: a fixed tail appended
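Further: lentivirally expressed fusions sorted by FACS into six bins by GFP to DsRed ratio, PSI derived from sequencing read proportions per bin multiplied by bin number.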

Protein stability index, by site and new letter:
A2: G 4.69; F 4.45; Q 4.09; C 4.03; I 3.15; W 3.63; L 4.67; T 4.49; Y 4.3; D 5.06; H 3.59; S 4.53; V 2.39; N 4.92; P 4.43; M 4.38; E 5.05; R 4.56; K 4.51
Q4: I 3.54; N 4.07; R 3.06; F 2.77; H 3.92; T 3.72; Y 3.66; L 4.26; C 3.81; V 3.5; P 3.52; D 4.36; K 2.85; M 3.73; A 4.07; G 3.52; E 4.61; W 1.98; S 3.8
Y1: N 4.75; S 4.88; E 4.92; K 5; V 4.28; Q 5.12; L 4.75; F 3.6; I 5.16; P 5.26; T 5.16; C 3.93; H 5.37; A 5.22; W 4.52; G 5.17; R 4.84; M 5.19; D 5.19
H3: C 3.62; M 3.99; R 3.44; T 4.25; N 4.43; V 4.46; P 2.92; L 4.77; W 3.11; F 3.66; Y 3.45; E 4.87; Q 4.39; A 4.56; S 4.36; I 4.2; K 4.34; D 4.78; G 3.36
P5: K 3.61; H 3.85; G 3.96; D 4.93; F 3.11; A 4.23; I 3.4; C 3.72; E 4.62

Variants of: B2
Test: as above
Conditions: c terminus: a fixed tail appended

Protein stability index, by site and new letter:
D21: R 1.55; E 1.5; V 1.37; A 2.5; P 2.57; T 2.79; G 1.7; M 1.82; Y 1.69; S 2.14; W 2.23; L 3.98; H 1.44; K 2.39
S22: T 1.94; N 1.48; I 1.45; F 1.86; Y 1.94; M 2.15; W 2.08; D 1.72; L 1.78; A 1.82; Q 2.65; K 2.84; C 1.73; E 1.87; P 1.77
W15: P 3.86; Q 4.35; I 3.36; L 2.77; F 3.71; K 3.78; E 4.88; A 2.37; D 4.57; H 3.53; R 3.94; T 3.87; S 3.84; V 3.06; G 3.24; M 3.22; N 3.56; Y 3.36; C 2.74
H17: P 2.31; F 2.75; C 1.66; N 2.43; S 2.31; E 1.29; G 2.65; T 1.91; M 1.91; Q 1.71; Y 2.42; L 1.7; K 2.59; R 2.58; W 2.62; V 1.71; A 1.42; I 1.65
V19: I 1.75; R 2.2; M 2.94; F 1.55; T 3.13; A 2.8; K 2.3; E 3.71; N 2.55; Y 2.44; C 2.19; Q 2.81; D 3.23; W 1.62; P 2.42; H 1.66; L 2.35; G 2.4; S 2.75
T13: K 1.76; E 2.94; F 1.81; V 3.04; H 2.02; I 1.41; S 2.05; C 2.73; D 2.76; P 1.8; W 1.82; M 2.1; A 2.31; G 2.75; Y 1.72; N 1.91; R 2.14
C16: D 3.34; F 2.07; Y 2.56; S 2.14; L 2.79; P 2.57; N 3.65; E 2.34; T 2.01; A 1.3; K 2.99; I 1.84; Q 2.3; R 2.86; H 3.28; W 2.27; G 3.53
T12: H 1.31; P 2.71; Y 1.5; G 1.64; C 2.19; F 1.66; M 1.76; N 1.76; W 2.36; D 2.91; V 1.94; A 2.1; L 1.53; K 1.82; Q 2.12; S 2.62; I 1.93; E 2.68; R 2.09
I18: H 2.52; P 3.35; W 2.15; L 3.42; F 2.82; V 1.73; D 3.92; A 2.43; E 3.1; Y 1.74; T 2.17; M 2.34; G 3.15; R 3.06; Q 3.09; K 2.77; N 3.3; C 2.13; S 3.95
D23: E 1.99; C 1.53; Y 1.88; R 2.8; L 1.75; F 2.65; I 2.16; H 2.34; P 2.78; M 2.19; A 2.59; K 1.74; N 1.99; T 1.78; G 1.56; Q 1.84; S 3.1; V 1.62
S24: F 2.04; L 1.75; I 1.36; C 2; E 1.9; V 1.88; N 2.66; G 2.13; Y 1.53; R 1.37; D 2.75; P 2.01; T 2.99; K 1.92; W 1.79; M 2.21; Q 2.02; H 2.02
T11: P 2; H 2.95; I 1.67; W 2.02; A 3.08; L 1.58; Q 2.43; F 1.94; G 2.48; C 3.08; K 2.16; R 2.12; N 1.79; Y 2.41; S 1.83; D 2.97; V 1.13; E 2.11; M 2.39
R20: T 2.61; P 2.3; L 2.17; G 1.76; H 2.29; M 1.69; N 1.45; F 2.37; A 2.31; V 3.11; K 1.25; Y 2.4; Q 2.09; C 1.39; W 1.57; I 1.18; E 2.75; D 2.27
R14: E 3.35; K 2.3; W 1.65; I 1.94; T 1.71; G 2.57; D 3; Q 2.67; C 1.87; Y 2.05; S 1.91; L 2.14; M 1.6; A 3.02; F 2.04; V 3.08; P 2; H 2.17; N 2.94
